In US20120316071A1 (published 2012):

Assays:
[1] = molecular target: T1, Recombinant Human DLL4 (R&D Systems Cat#1506-D4/CF) (human, UniProt Q9NR61 27-524); assay: ELISA on coated DLL4, 100 nM Fab
T1 construct: Bought recombinant human DLL4; also called delta-like protein 4; rHuman DLL4

[2] = molecular target: T1, Recombinant Human DLL4 (R&D Systems …); assay: ECL (MSD) binding assay, immobilised DLL4, 10 nM Fab;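 further: fab binding read as electrochemiluminescence via a TAG-labelled detection antibody, 1 h incubations at 20 °C, antigen signal compared with each well's blank, ratio of at least 4 scored as binder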
[3] = molecular target: T2, Recombinant Human DLL4 (delta-like protein 4) (human, UniProt Q9NR61 27-524); assay: ELISA on coated DLL4, Fab at 3.125 nM (2-fold serial dilution)
T2 construct: also called rHuman DLL4; Delta-like 4

[4] = molecular target: T2, Recombinant Human DLL4 (delta-like …); assay: ELISA on coated DLL4, Fab at 50 nM (2-fold serial dilution)
[5] = molecular target: T2, Recombinant Human DLL4 (delta-like …); assay: ELISA on coated DLL4, Fab at 25 nM (2-fold serial dilution)
[6] = molecular target: T2, Recombinant Human DLL4 (delta-like …); assay: ELISA on coated DLL4, Fab at 12.5 nM (2-fold serial dilution)
[7] = molecular target: T2, Recombinant Human DLL4 (delta-like …); assay: ELISA on coated DLL4, Fab at 6.25 nM (2-fold serial dilution)
[8] = molecular target: T2, Recombinant Human DLL4 (delta-like …); assay: ELISA on coated DLL4, Fab at 100 nM (2-fold serial dilution)

ELISA Signal [100 nM Fab] [1]	ECL Signal [10 nM Fab] [2]	ELISA signal [3]	ELISA signal [4]	ELISA signal [5]	ELISA signal [6]	ELISA signal [7]	ELISA signal [8]	Binder
0.02	57000							Fab VH5-51_IGHD5-18*01>3_IGHJ4*01 G100K/G104T (H:KT) & V3-4_IGLJ1*01 S96E (Fab, V domains shown, Fab format: CH1 with His6 and Flag tags, and lambda CL, from the vectors; also called G100K/G104T & S96E) VH: EVQLVQSGAEVKKPGESLKISCKGSGYSFTSYWIGWVRQMPGKGLEWMGIIYPGDSDTRYSPSFQGQVTISADKSISTAYLQWSSLKASDTAMYYCARRKYSYTYDYFDYWGQGTLVTVSS VL: QTVVTQEPSFSVSPGGTVTLTCGLSSGSVSTSYYPSWYQQTPGQAPRTLIYSTNTRSSGVPDRFSGSILGNKAALTITGAQADDESDYYCVLYMGEGISYVFGTGTKVTVL
0.02	54300							Fab VH5-51_IGHD5-18*01>3_IGHJ4*01 G100K/G104T (H:KT) & V3-4_IGLJ1*01 S96R (Fab, V domains shown, Fab format: CH1 with His6 and Flag tags, and lambda CL, from the vectors; also called G100K/G104T & S96R) VH: EVQLVQSGAEVKKPGESLKISCKGSGYSFTSYWIGWVRQMPGKGLEWMGIIYPGDSDTRYSPSFQGQVTISADKSISTAYLQWSSLKASDTAMYYCARRKYSYTYDYFDYWGQGTLVTVSS VL: QTVVTQEPSFSVSPGGTVTLTCGLSSGSVSTSYYPSWYQQTPGQAPRTLIYSTNTRSSGVPDRFSGSILGNKAALTITGAQADDESDYYCVLYMGRGISYVFGTGTKVTVL
0	1130							Fab VH5-51_IGHD5-18*01>3_IGHJ4*01 G100K/G104T (H:KT) & V3-4_IGLJ1*01 S96A (Fab, V domains shown, Fab format: CH1 with His6 and Flag tags, and lambda CL, from the vectors; also called G100K/G104T & S96A) VH: EVQLVQSGAEVKKPGESLKISCKGSGYSFTSYWIGWVRQMPGKGLEWMGIIYPGDSDTRYSPSFQGQVTISADKSISTAYLQWSSLKASDTAMYYCARRKYSYTYDYFDYWGQGTLVTVSS VL: QTVVTQEPSFSVSPGGTVTLTCGLSSGSVSTSYYPSWYQQTPGQAPRTLIYSTNTRSSGVPDRFSGSILGNKAALTITGAQADDESDYYCVLYMGAGISYVFGTGTKVTVL
0.02	40000							Fab VH5-51_IGHD5-18*01>3_IGHJ4*01 G100K/G104T (H:KT) & V3-4_IGLJ1*01 S96L (Fab, V domains shown, Fab format: CH1 with His6 and Flag tags, and lambda CL, from the vectors; also called G100K/G104T & S96L) VH: EVQLVQSGAEVKKPGESLKISCKGSGYSFTSYWIGWVRQMPGKGLEWMGIIYPGDSDTRYSPSFQGQVTISADKSISTAYLQWSSLKASDTAMYYCARRKYSYTYDYFDYWGQGTLVTVSS VL: QTVVTQEPSFSVSPGGTVTLTCGLSSGSVSTSYYPSWYQQTPGQAPRTLIYSTNTRSSGVPDRFSGSILGNKAALTITGAQADDESDYYCVLYMGLGISYVFGTGTKVTVL
0.01	42300							Fab VH5-51_IGHD5-18*01>3_IGHJ4*01 G100K/G104T (H:KT) & V3-4_IGLJ1*01 S96V (Fab, V domains shown, Fab format: CH1 with His6 and Flag tags, and lambda CL, from the vectors; also called G100K/G104T & S96V) VH: EVQLVQSGAEVKKPGESLKISCKGSGYSFTSYWIGWVRQMPGKGLEWMGIIYPGDSDTRYSPSFQGQVTISADKSISTAYLQWSSLKASDTAMYYCARRKYSYTYDYFDYWGQGTLVTVSS VL: QTVVTQEPSFSVSPGGTVTLTCGLSSGSVSTSYYPSWYQQTPGQAPRTLIYSTNTRSSGVPDRFSGSILGNKAALTITGAQADDESDYYCVLYMGVGISYVFGTGTKVTVL
		0.257	0.245	0.221	0.233	0.278	0.298	Fab VH5-51_IGHD5-18*01>3_IGHJ4*01 G100K/G104T G24L & V3-4_IGLJ1*01 (Fab, V domains shown, Fab; also called H:KT G24L & L:parent) VH: EVQLVQSGAEVKKPGESLKISCKLSGYSFTSYWIGWVRQMPGKGLEWMGIIYPGDSDTRYSPSFQGQVTISADKSISTAYLQWSSLKASDTAMYYCARRKYSYTYDYFDYWGQGTLVTVSS VL: QTVVTQEPSFSVSPGGTVTLTCGLSSGSVSTSYYPSWYQQTPGQAPRTLIYSTNTRSSGVPDRFSGSILGNKAALTITGAQADDESDYYCVLYMGSGISYVFGTGTKVTVL
0.01	36600							Fab VH5-51_IGHD5-18*01>3_IGHJ4*01 G100K/G104T (H:KT) & V3-4_IGLJ1*01 (Fab, V domains shown, Fab format: CH1 with His6 and Flag tags, and lambda CL, from the vectors; also called KT double mutant; H:KT & L:wt) VH: EVQLVQSGAEVKKPGESLKISCKGSGYSFTSYWIGWVRQMPGKGLEWMGIIYPGDSDTRYSPSFQGQVTISADKSISTAYLQWSSLKASDTAMYYCARRKYSYTYDYFDYWGQGTLVTVSS VL: QTVVTQEPSFSVSPGGTVTLTCGLSSGSVSTSYYPSWYQQTPGQAPRTLIYSTNTRSSGVPDRFSGSILGNKAALTITGAQADDESDYYCVLYMGSGISYVFGTGTKVTVL
		0.18	0.211	0.205	0.184	0.182	0.231	Fab VH5-51_IGHD5-18*01>3_IGHJ4*01 G100K/G104T (KT) & V3-4_IGLJ1*01 R56Y (Fab, V domains shown, Fab; also called H:KT & L:R56Y) VH: EVQLVQSGAEVKKPGESLKISCKGSGYSFTSYWIGWVRQMPGKGLEWMGIIYPGDSDTRYSPSFQGQVTISADKSISTAYLQWSSLKASDTAMYYCARRKYSYTYDYFDYWGQGTLVTVSS VL: QTVVTQEPSFSVSPGGTVTLTCGLSSGSVSTSYYPSWYQQTPGQAPRTLIYSTNTYSSGVPDRFSGSILGNKAALTITGAQADDESDYYCVLYMGSGISYVFGTGTKVTVL
0.03	54000							Fab VH5-51_IGHD5-18*01>3_IGHJ4*01 G100K/G104T (H:KT) & V3-4_IGLJ1*01 S96P (Fab, V domains shown, Tested as a Fab made in E. coli; The heavy chain vector (plasmid A) adds CH1 with His6 and Flag tags; the lambda light chain vector (plasmid E) adds CL; also called G100K/G104T & S96P) VH: EVQLVQSGAEVKKPGESLKISCKGSGYSFTSYWIGWVRQMPGKGLEWMGIIYPGDSDTRYSPSFQGQVTISADKSISTAYLQWSSLKASDTAMYYCARRKYSYTYDYFDYWGQGTLVTVSS VL: QTVVTQEPSFSVSPGGTVTLTCGLSSGSVSTSYYPSWYQQTPGQAPRTLIYSTNTRSSGVPDRFSGSILGNKAALTITGAQADDESDYYCVLYMGPGISYVFGTGTKVTVL
